The record followed here is patent US20250388669A1 (published 2025).

This experiment deals with T1, PD-1 (human, UniProt Q15116 25-167, limits assumed).
T1 construct: The reporter assay used Jurkat T cells expressing human PD-1
Kind of experiment: FCM or ELISA. On the technique in general: ELISA stands for enzyme-linked immunosorbent assay.

T1 sequence (Q15116 25-167 limits assumed): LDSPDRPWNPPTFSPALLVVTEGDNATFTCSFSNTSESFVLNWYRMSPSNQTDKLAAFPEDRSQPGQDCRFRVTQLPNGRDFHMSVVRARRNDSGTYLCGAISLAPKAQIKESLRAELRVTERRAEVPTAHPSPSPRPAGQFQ

B1: Ly2396 (bispecific antibody, human IgG1, kappa)
chain 1: QVTLKESGPALVKPTQTLTLTCTFSGFSLSTSGTCVSWIRQPPGKALEWLATICWEDSKGYNPSLKSRLTISKDTSKNQAVLTMTNMDPVDTATYYCARREDSGYFWFPYWGQGTLVTVSSASTKGPSVFPLAPSSKSTSGGTAALGCLVKDYFPEPVTVSWNSGALTSGVHTFPAVLQSSGLYSLSSVVTVPSSSLGTQTYICNVNHKPSNTKVDKKVEPKSCDKTHTCPPCPAPEAAGPSVFLFPPKPKDTLMISRTPEVTCVVVDVSHEDPEVKFNWYVDGVEVHNAKTKPREEQYNSTYRVVSVLTVLHQDWLNGKEYKCKVSNKALPAPIEKTISKAKGQPREPQVYTLPPSREEMTKNQVSLWCLVKGFYPSDIAVEWESNGQPENNYKTTPPVLDSDGSFFLYSKLTVDKSRWQQGNVFSCSVMHEALHNHYTQKSLSLSPGGGGGSGGGGSGGGGSGGGGSQVQLVQSGAEVKKPGASVKVSCKASGYTFAGFEMHWVRQAPGQGLEWMGAIDPKTGGTDYNQKFKDRVTMTRDTSISTAYMELSRLRSDDTAVYYCARDLGYFDVWGQGTLVTVSS
chain 2: QVTLKESGPALVKPTQTLTLTCTFSGFSLSTSGTCVSWIRQPPGKALEWLATICWEDSKGYNPSLKSRLTISKDTSKNQAVLTMTNMDPVDTATYYCARREDSGYFWFPYWGQGTLVTVSSASTKGPSVFPLAPSSKSTSGGTAALGCLVKDYFPEPVTVSWNSGALTSGVHTFPAVLQSSGLYSLSSVVTVPSSSLGTQTYICNVNHKPSNTKVDKKVEPKSCDKTHTCPPCPAPEAAGPSVFLFPPKPKDTLMISRTPEVTCVVVDVSHEDPEVKFNWYVDGVEVHNAKTKPREEQYNSTYRVVSVLTVLHQDWLNGKEYKCKVSNKALPAPIEKTISKAKGQPREPQVYTLPPSREEMTKNQVSLSCAVKGFYPSDIAVEWESNGQPENNYKTTPPVLDSDGSFFLVSKLTVDKSRWQQGNVFSCSVMHEALHNRFTQKSLSLSPGGGGGSGGGGSGGGGSGGGGSDIQMTQSPSSLSASVGDRVTITCRASQDIRSNLNWYQQKPGGAVKLLIYYTSRLHSGVPSRFSGSGSGTDYTLTISSLQPEDFATYFCQQSEKLPRTFGGGTKVEIR
light: NIQMTQSPSSLSASVGDRVTITCKAGQNVNNYLAWYQQKPGKAPKVLIFNANSLQTGVPSRFSGSGSGTDFTLTISSLQPEDFATYYCQQYNSWPTFGGGTKVEIKRTVAAPSVFIFPPSDEQLKSGTASVVCLLNNFYPREAKVQWKVDNALQSGNSQESVTEQDSKDSTYSLSSTLTLSKADYEKHKVYACEVTHQGLSSPVTKSFNRGEC
notes: PD-1/CD137: two PD-1 Fabs, terminal CD137 Fv
Take B1: the binding result is recorded as “binds”.

B2: Ly2280 (bispecific antibody)
chain 1: not shown
chain 2: QVTLKESGPALVKPTQTLTLTCTFSGFSLSTSGTCVSWIRQPPGKALEWLATICWEDSKGYNPSLKSRLTISKDTSKNQAVLTMTNMDPVDTATYYCARREDSGYFWFPYWGQGTLVTVSSASTKGPSVFPLAPSSKSTSGGTAALGCLVKDYFPEPVTVSWNSGALTSGVHTFPAVLQSSGLYSLSSVVTVPSSSLGTQTYICNVNHKPSNTKVDKKVEPKSCGGGGSGGGGSGGGGSGGGGSDIQMTQSPSSVSASVGDRVTITCRASQGIYSWLAWYQQKPGKAPNLLIYTASTLQSGVPSRFSGSGSGTDFTLTISSLQPEDFATYYCQQANIFPLTFGGGTKVEIKGGGGSDKTHTCPPCPAPEAAGPSVFLFPPKPKDTLMISRTPEVTCVVVDVSHEDPEVKFNWYVDGVEVHNAKTKPREEQYNSTYRVVSVLTVLHQDWLNGKEYKCKVSNKALPAPIEKTISKAKGQPREPQVYTLPPSREEMTKNQVSLSCAVKGFYPSDIAVEWESNGQPENNYKTTPPVLDSDGSFFLVSKLTVDKSRWQQGNVFSCSVMHEALHNRFTQKSLSLSPG
light: B1 light
notes: PD-1/CD40: two PD-1 Fabs, central CD40 Fv (TM383)
In the case of B2, the binding result is on record as “binds”.
